B1: N-612-017 (antibody, V domains shown)
VH: EVQLVESGGGLVQPGGSLRLSCAASGFTFSSYAMHWVRQAPGKGLEWVSAIWGSGSNTYYADSVKGRFTISRDNSKNTLYLQMNSLRAEDTAVYYCARGRDLAAFTKTAFDVWGQGTLVTVSS
VL: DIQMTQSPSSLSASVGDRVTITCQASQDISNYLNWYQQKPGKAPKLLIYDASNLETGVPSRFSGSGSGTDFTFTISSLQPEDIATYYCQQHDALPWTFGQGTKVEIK
B2: N-612-017-5B05 SV (antibody, V domains shown)
VH: EVQLVESGGGLVQPGGSLRLSCAASGFTFSSYVMHWVRQAPGKGLEWVSAIWGSGSNTYYADSVKGRFTISVDNSKNTLYLQMNSLRAEDTAVYYCARGEELAAFTKTAFDVWGQGTLVTVSS
VL: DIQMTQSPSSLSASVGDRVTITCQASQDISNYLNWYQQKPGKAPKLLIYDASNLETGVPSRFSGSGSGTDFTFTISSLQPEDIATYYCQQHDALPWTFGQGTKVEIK
B3: N-612-007 (antibody, V domains shown)
VH: EVQLVESGGGLVQPGGSLRLSCAASGFTFSNYAMHWVRQAPGKGLEWVSAISGNGGSTGYADSVKGRFTISRDNSKNTLYLQMNSLRAEDTAVYYCARDRWYVKNAFDVWGQGTLVTVSS
VL: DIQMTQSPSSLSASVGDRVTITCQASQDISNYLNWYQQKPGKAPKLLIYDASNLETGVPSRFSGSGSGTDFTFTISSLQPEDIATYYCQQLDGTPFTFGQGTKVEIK
B4: N-612-014 (antibody, V domains shown)
VH: EVQLVESGGGLVQPGGSLRLSCAASGFTFSSYAMTWVRQAPGKGLEWVSYISGSGGGTYYADSVKGRFTISRDNSKNTLYLQMNSLRAEDTAVYYCARDRWASGWLAFDVWGQGTLVTVSS
VL: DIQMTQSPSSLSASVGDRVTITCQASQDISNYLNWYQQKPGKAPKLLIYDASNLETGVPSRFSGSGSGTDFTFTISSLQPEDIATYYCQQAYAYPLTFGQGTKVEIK
B5: N-612-004 (antibody, V domains shown)
VH: EVQLVESGGGLVQPGGSLRLSCAASGFTFSSYYMHWVRQAPGKGLEWVSAISGSGGYTYYADSVKGRFTISRDNSKNTLYLQMNSLRAEDTAVYYCARDRDHAYDWGFDVWGQGTLVTVSS
VL: DIQMTQSPSSLSASVGDRVTITCQASQDISNYLNWYQQKPGKAPKLLIYDASNLETGVPSRFSGSGSGTDFTFTISSLQPEDIATYYCQQWADWPLTFGQGTKVEIK
B6: N-612-056 (antibody, V domains shown)
VH: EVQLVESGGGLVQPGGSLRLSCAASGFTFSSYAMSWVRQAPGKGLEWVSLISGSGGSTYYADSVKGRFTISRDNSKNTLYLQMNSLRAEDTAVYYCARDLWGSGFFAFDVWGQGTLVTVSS
VL: DIQMTQSPSSLSASVGDRVTITCQASQDISNYLNWYQQKPGKAPKLLIYDASNLETGVPSRFSGSGSGTDFTFTISSLQPEDIATYYCQQDAGTPLTFGQGTKVEIK
B7: N-612-056-21 (antibody, V domains shown)
VH: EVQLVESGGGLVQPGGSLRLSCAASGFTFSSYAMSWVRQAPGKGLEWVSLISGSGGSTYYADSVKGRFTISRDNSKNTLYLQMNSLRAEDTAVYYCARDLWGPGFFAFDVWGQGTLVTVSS
VL: DIQMTQSPSSLSASVGDRVTITCQASQDISNYLNWYQQKPGKAPKLLIYDASNLETGVPSRFSGSGSGTDFTFTISSLQPEDIATYYCQQDAGTPLTFGQGTKVEIK

What was measured:
[1] = target: SARS-CoV-2 Spike protein on live SARS-CoV-2 (SARS-CoV-2, UniProt P0DTC2 14-1273); assay: cell-based or functional assay
[2] = target: SARS-CoV-2 Spike receptor binding domain (RBD), wildtype (SARS-CoV-2, UniProt P0DTC2 319-541)

| Binder | live SARS-CoV-2 neutralization IC50 [1] | Kd [2] |
| --- | --- | --- |
| B1 | 0.0756 µg/mL | 5.29 nM |
| B2 | – | 6.62 nM |
| B3 | 0.0452 µg/mL | – |
| B4 | 0.00791 µg/mL | – |
| B5 | 0.194 µg/mL | – |
| B6 | 0.855 µg/mL | 2.98 nM |
| B7 | – | 0.41 nM |

— patent EP4335870A1 (NantCell, Inc., dated 2024)
